Molecular target: HLA‐DR1 (HLA‐DRA1*01:01/HLA‐DRB*01:01) complexed with the HA_(306‐318) peptide, refolded from E. coli (human | )
Experiment: SPR
Conditions: both partners purified

B1: LAG‐3:Fc fusion protein (four extracellular domains of LAG‐3 and the Fc domain of IgG) (Fc fusion)
chain: LQPGAEVPVVWAQEGAPAQLPCSPTIPLQDLSLLRRAGVTWQHQPDSGPPAAAPGHPLAPGPHPAAPSSWGPRPRRYTVLSVGPGGLRSGRLPLQPRVQLDERGRQRGDFSLWLRPARRADAGEYRAAVHLRDRALSCRLRLRLGQASMTASPPGSLRASDWVILNCSFSRPDRPASVHWFRNRGQGRVPVRESPHHHLAESFLFLPQVSPMDSGPWGCILTYRDGFNVSIMYNLTVLGLEPPTPLTVYAGAGSRVGLPCRLPAGVGTRSFLTAKWTPPGGGPDLLVTGDNGDFTLRLEDVSQAQAGTYTCHIHLQEQQLNATVTLAIITVTPKSFGSPGSLGKLLCEVTPVSGQERFVWSSLDTPSQRSFSGPWLEAQEAQLLSQPWQCQLYQGERLLGAAVYFTELSSPGAQRSGRAPGALPAGHL
  Kd: 13.1 µM

Source: publication PMC8101287, “Molecular characterization of HLA class II binding to the LAG‐3 T cell co‐inhibitory receptor” (European Journal of Immunology, 2020)
